The values that follow come from article doi:10.1101/2021.10.02.462850 (bioRxiv, 2021).

This series concerns the molecule itself. Put plainly: crystal structure.

B1: RUN1^TIR-E100A (domain or fragment, grapevine, UniProt V9M398 23-198, looked up)
chain: RTITYDVFLSFRGEDTRFNFTDHLYSALGRRGIRTFRDDKLRRGEAIAPELLKAIEESRSSVIVFSENYARSRWCLDALVKIMECHKDKKDPGHAVFPIFYHVDPSHVRKQEGSFGEAFAGYGENLKDKIPRWRTALTEAANLSGWPLQDGYESNQIKEITDSIFRRLKCKRLDAG
Turning to B1, the binding result is on record as “binds”.
